Data on four molecules can be found in paper PMC7051184, “C9orf72 arginine-rich dipeptide repeat proteins disrupt karyopherin-mediated nuclear import” (eLife, 2020).

Test [1] has as its target T1, 6His-S-Importin β(1-876), full-length WT human importin β (human, UniProt Q14974 1-876).
T1 construct: human importin β (KPNB1), full length, residues 1-876, expressed from pET30a; Construct from Chi et al., 1997; also called KPNB1; WT importin β (pKW485)
Kind of test: FRET or BRET; Rango FRET sensor in solution: 20 nM Rango-2/α1 (pK188) and 50 nM importin β (pKW485) in TBS pH 7.4, 0.01% Tween-20, with increasing concentrations of DPR 10-mers or ZZ-RanQ69L-GTP; ratio of acceptor (535 nm) to donor (480 nm) emission; non-linear fit with one binding site. Particulars: both partners purified. On the technique in general: In BRET a luciferase serves as donor, and the signal depends on an acceptor being close.

Test [2] has as its target T2, biotinylated WT importin β-Avitag (human, UniProt Q14974 1-876, biotin on the Avitag).
T2 construct: WT human importin β (KPNB1) in pRSET A with C-terminal Avitag; Called WT; Held on neutravidin beads by the biotin; also called biotinylated importin β; importin β-coated beads; source: E. coli BL21DE3, co-expressed with BirA biotin ligase, purified (Ni-NTA)
In words: bead halo assay; biotinylated importin β or biotinylated BSA on neutravidin polystyrene beads; fluorescent prey (200 nM AF488-DPR, Rango) in binding buffer with assay buffer (EDTA, BSA, NaCl, Tween); room temperature, at least 30 min; confocal rim vs. background ratio. Particulars: both partners purified.

Where no end group is shown, it is not given here.

T2 sequence (Q14974 whole entry): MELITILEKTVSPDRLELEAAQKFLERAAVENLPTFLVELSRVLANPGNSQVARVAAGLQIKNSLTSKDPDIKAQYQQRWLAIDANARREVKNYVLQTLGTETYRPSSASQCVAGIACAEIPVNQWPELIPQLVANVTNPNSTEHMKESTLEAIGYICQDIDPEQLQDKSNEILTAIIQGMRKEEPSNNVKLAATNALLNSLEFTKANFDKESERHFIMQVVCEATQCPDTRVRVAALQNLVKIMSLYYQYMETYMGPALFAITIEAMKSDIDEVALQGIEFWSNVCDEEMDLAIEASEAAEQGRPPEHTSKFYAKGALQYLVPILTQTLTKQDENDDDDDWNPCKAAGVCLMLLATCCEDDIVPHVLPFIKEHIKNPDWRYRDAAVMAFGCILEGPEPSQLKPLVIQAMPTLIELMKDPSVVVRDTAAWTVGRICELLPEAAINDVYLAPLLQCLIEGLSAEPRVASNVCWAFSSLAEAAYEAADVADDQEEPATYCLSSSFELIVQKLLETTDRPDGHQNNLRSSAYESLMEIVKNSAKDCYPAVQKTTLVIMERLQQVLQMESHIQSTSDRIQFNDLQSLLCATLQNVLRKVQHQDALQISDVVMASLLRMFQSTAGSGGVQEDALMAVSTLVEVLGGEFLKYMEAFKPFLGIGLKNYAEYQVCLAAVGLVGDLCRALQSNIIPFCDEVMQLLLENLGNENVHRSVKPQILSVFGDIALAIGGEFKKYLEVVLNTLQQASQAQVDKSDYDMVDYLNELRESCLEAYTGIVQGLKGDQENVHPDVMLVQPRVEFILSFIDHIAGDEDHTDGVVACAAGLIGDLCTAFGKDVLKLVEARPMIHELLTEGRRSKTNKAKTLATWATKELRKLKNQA
T1 sequence (Q14974 whole entry, the tested form may be a part): as the sequence (Q14974 whole entry) above

B1: PR10, synthetic poly-proline-arginine 10-mer dipeptide repeat protein with C-terminal lysine and cysteine (peptide)
peptide: PRPRPRPRPRPRPRPRPRPRKC
notes: C9orf72 repeat-associated non-AUG translation product poly-PR, 10 repeats, plus C-terminal K and C; unlabelled form; also called R-DPR; source: synthetic peptide (Genscript; 21st Century Biochemicals)
Take B1: the binding result in test [1] is “binds”.

B2: AF488-labeled GR10 (peptide)
peptide: GRGRGRGRGRGRGRGRGRGRKC(Alexa Fluor 488 C5‑maleimide)
notes: poly-GR, 10 repeats, plus C-terminal K and C; also called AF488-GR10; DPR-AF488; source: synthetic peptide (Genscript)
Take B2: the “halo intensity (rim vs. background) relative to control beads” value in test [2] is roughly 2 fold.

B3: AF488-labeled PR10 (peptide)
peptide: PRPRPRPRPRPRPRPRPRPRKC(Alexa Fluor 488 C5‑maleimide)
notes: poly-PR, 10 repeats, plus C-terminal K and C; also called AF488-PR10; DPR-AF488; source: synthetic peptide (Genscript)
Turning to B3, in test [2], the “halo intensity (rim vs. background) relative to control beads” value was roughly 2 fold.

B4: GR10, synthetic poly-glycine-arginine 10-mer dipeptide repeat protein with C-terminal lysine and cysteine (peptide)
peptide: GRGRGRGRGRGRGRGRGRGRKC
notes: C9orf72 repeat-associated non-AUG translation product poly-GR, 10 repeats, plus C-terminal K (solubility) and C (labelling); unlabelled form, used in the FRET, GFP-Trap, sedimentation and import assays; also called poly-GR; R-DPR; source: synthetic peptide (Genscript; 21st Century Biochemicals)
On to B4, for which the binding result in test [1] was “binds”.
